A short description of data set [1]: phospho-S243 immunoblot, anti-IgM-stimulated Ramos. Particulars: glycan lost; control: WT Lsp1. (Immunoblotting shows a protein as a band on a membrane.)
The nature of data set [2]: phospho-S243 immunoblot, anti-IgM-stimulated splenic B cells. The settings on record: glycan gained; control: no TG.

B1: lymphocyte-specific protein-1 (Lsp1, mLsp1): S209A (protein)
parent chain: MAEAAIDPRCEEQEELHAEDSEGLTTQWREEDEEEAAREQRQRERERQLQDQDKDKEDDGGHSLEQPGQQTLISLKSSELDEDEGFGDWSQKPEPRQQFWGNEGTAEGTEPSQSERPEEKQTEESSHQAKVHLEESNLSYREPDPEDAVGGSGEAEEHLIRHQVRTPSPLALEDTVELSSPPLSPTTKLADRTESLNRSIKKSNSVKKSQPTLPISTIDERLQQYTQATESSGRTPKLSRQPSIELPSMAVASTKTLWETGEVQSQSASKTPSCQDIVAGDMSKKSLWEQKGGSKISSTIKSTPSGKRYKFVATGHGKYEKVLVDEGSAP
Regarding B1, the “other: phosphorylation at S243” value in data set [1] was “decreases”.

B2: lymphocyte-specific protein-1 (Lsp1, mLsp1): thiamet-G (TG) (protein)
parent chain: MAEAAIDPRCEEQEELHAEDSEGLTTQWREEDEEEAAREQRQRERERQLQDQDKDKEDDGGHSLEQPGQQTLISLKSSELDEDEGFGDWSQKPEPRQQFWGNEGTAEGTEPSQSERPEEKQTEESSHQAKVHLEESNLSYREPDPEDAVGGSGEAEEHLIRHQVRTPSPLALEDTVELSSPPLSPTTKLADRTESLNRSIKKSNSVKKSQPTLPISTIDERLQQYTQATESSGRTPKLSRQPSIELPSMAVASTKTLWETGEVQSQSASKTPSCQDIVAGDMSKKSLWEQKGGSKISSTIKSTPSGKRYKFVATGHGKYEKVLVDEGSAP
For B2, the “other: phosphorylation at S243” value in data set [2] was “increases”.
